From the supplement of paper PMC10724198
± gives the standard deviation of the averaged measurements.

Test system: Saccharomyces cerevisiae
Assay: protein stability index of tFT-peptide fusion (C-terminal peptide) (PSI (0-1 scale)); higher = more stable (slower turnover)
Conditions: genetic background: wild type; temperature: 30 C
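Note: PSI is a weighted mean of sequencing reads over stability bins, variants kept only with over 10 reads, mCherry proximal and sfGFP distal, peptide attached via GGGS linker.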

Sequence | protein stability index
LLRVYNQNGERN | 0.734 ± 0.044
LLRWEPNYTENL | 0.796 ± 0.028
LLRYAPSALPLP | 0.6683 ± 0.0031
LLSAPFRSFFTL | 0.5548 ± 0.0046
LLSAVVDHTHLQ | 0.664 ± 0.07
LLSCVRSHPDAP | 0.702 ± 0.073
LLSLATPHPSAL | 0.714 ± 0.045
LLSLMCYCWFGV | 0.5088 ± 0.0011
LLSPDAALGRLF | 0.692 ± 0.025
LLSPFLPPPLFV | 0.563 ± 0.019
LLSPPPTPFPLP | 0.666 ± 0.061
LLSRCAGLMWSF | 0.679 ± 0.0098
LLSRQEWMTGRS | 0.673 ± 0.031
LLTWENWVVPRL | 0.738 ± 0.053
LLVLFRWSGIPG | 0.552 ± 0.034
LLVLGHVCAANF | 0.601 ± 0.0094
LLVMRGMRGCGT | 0.681 ± 0.056
LLVMRRHRFLRL | 0.624 ± 0.051
LLVNLNINYFKR | 0.689 ± 0.018
LLWCPLRSIGLS | 0.696 ± 0.044
LLWPSPAISLPT | 0.722 ± 0.021
LMAGPRLCSPLR | 0.634 ± 0.033
LMCGPARSPLTT | 0.6701 ± 0.00098
LMFPLPLRSFPF | 0.6931 ± 0.0014
LNHQSSVHLNTP | 0.732 ± 0.034
LNTTKTFCSPCL | 0.692 ± 0.081

Sequence | protein stability index
LPACVVVRYCRF | 0.637 ± 0.12
LPAPLHPPPSQP | 0.638 ± 0.014
LPAPPAPLTFPG | 0.687 ± 0.021
LPASLPPPPPPY | 0.756 ± 0.058
LPCGPRGLTRPP | 0.661 ± 0.0091
LPDSYAVVPPTS | 0.642 ± 0.068
LPDVFLSSFFCL | 0.709 ± 0.027
LPFCLPAPLPPP | 0.708 ± 0.04
LPFFFPRLFSPP | 0.691 ± 0.061
LPFPSPLPSPPP | 0.702 ± 0.035
LPGSVLLFPSFS | 0.747 ± 0.035
LPHLFPSTPPAS | 0.723 ± 0.025
LPHSYFCPTFFF | 0.675 ± 0.019
LPIKRLPLPTVP | 0.682 ± 0.015
LPIKRLWKGLHG | 0.652 ± 0.1
LPLGSTVVSGES | 0.632 ± 0.034
LPLHHYAHKFDL | 0.746 ± 0.1
LPLIISTNYTPD | 0.723 ± 0.11
LPLPLPWHSCPP | 0.721 ± 0.029
LPLPVPPPPLPS | 0.654 ± 0.034
LPLRYFSFPDPF | 0.6949 ± 0.0035
LPPAPAPPQCST | 0.675 ± 0.052
LPPCAPPLPPSS | 0.706 ± 0.067
LPPFFPLLSPPF | 0.664 ± 0.031
LPPFPRPPPPSP | 0.719 ± 0.029
LPPGIPLRSSPP | 0.683 ± 0.022

Sequence | protein stability index
LPPLLPPFHPPR | 0.701 ± 0.06
LPPLPPRSPPPP | 0.731 ± 0.02
LPPLRVIANIRG | 0.659 ± 0.019
LPPPAPPSSFPP | 0.661 ± 0.056
LPPPIPPPLSLA | 0.703 ± 0.013
LPPPLPPSLRLR | 0.602 ± 0.083
LPPPPLTTLLHT | 0.604 ± 0.043
LPPPPRPLPRSL | 0.732 ± 0.018
LPPPRPTRSPTH | 0.617 ± 0.034
LPPRIPRPDVSF | 0.72 ± 0.0075
LPPRPPESLHLP | 0.724 ± 0.03
LPPRPPRRPESP | 0.663 ± 0.055
LPPSLPTHLSHP | 0.7629 ± 0.0041
LPPSPPPFPPLP | 0.642 ± 0.011
LPPTHPPPPPAL | 0.7 ± 0.045
LPPVLPLLPSPP | 0.692 ± 0.044
LPQVKLGRIYTY | 0.683 ± 0.032
LPQVYSGIMRFV | 0.6243 ± 0.0036
LPRFAPPNPALP | 0.658 ± 0.071
LPRGLRAISCVE | 0.569 ± 0.024
LPRPPPPPPPPP | 0.759 ± 0.042
LPRSLSGCGAGV | 0.711 ± 0.015
LPRSSGSTTPYP | 0.688 ± 0.025
LPSKSTVALGPL | 0.633 ± 0.046
LPSPSATPPRPP | 0.634 ± 0.034
LPSPSPPPPLLL | 0.677 ± 0.015

Sequence | protein stability index
LPSPSPPPPLLP | 0.743 ± 0.022
LPSPSSLPAPPV | 0.677 ± 0.031
LPSRSLPSPGPP | 0.714 ± 0.027
LPSSSPHPADPS | 0.643 ± 0.08
LPVCVRLSLCDV | 0.6144 ± 0.004
LPVLCSRVFVSS | 0.517 ± 0.023
LPVLGSFRLIWL | 0.626 ± 0.016
LPVPPPHPPCPL | 0.6497 ± 0.0036
LQPRLLSIVPYN | 0.635 ± 0.03
LQSSSCLLYPSS | 0.681 ± 0.026
LRAHHHSAKFQY | 0.6608 ± 0.0056
LRARMACPLIIS | 0.663 ± 0.025
LRASVFPVLDMC | 0.718 ± 0.075
LRCSVKQNLGIV | 0.655 ± 0.045
LRDTAPEPGPAP | 0.6895 ± 0.0014
LREETKREDDKQ | 0.814 ± 0.061
LRENKGPAPPLL | 0.651 ± 0.0087
LRFDGKASHSST | 0.6813 ± 0.0014
LRFRGKSQNDYD | 0.67 ± 0.058
LRFTYSFIPPSV | 0.631 ± 0.00064
LRGGWVESCGGW | 0.669 ± 0.027
LRHRAYPKLFPA | 0.708 ± 0.011
LRIILPPLAQPE | 0.639 ± 0.019
LRKNRKHINKKI | 0.626 ± 0.034
LRLATTLFPLSF | 0.797 ± 0.12
LRLECESIKRYT | 0.61 ± 0.055

Sequence | protein stability index
LRLPAPPLASAC | 0.596 ± 0.006
LRMHFPPHPSSL | 0.691 ± 0.067
LRNGSFFLVFSC | 0.531 ± 0.016
LRPPLRPRPIPL | 0.6983 ± 0.0036
LRPPPPRGPSPP | 0.689 ± 0.023
LRPRPPTLPPSR | 0.638 ± 0.04
LRRAPPSPPPPP | 0.716 ± 0.054
LRRGRLVSSAAF | 0.802 ± 0.077
LRRTKWRTLQAP | 0.701 ± 0.048
LRSGGVPVFWGS | 0.721 ± 0.043
LRSPHPLPPPPP | 0.732 ± 0.062
LRSPPPVSHRLP | 0.822 ± 0.048
LRSRVGYVMPVR | 0.5988 ± 0.0057
LRVKVPLLGLWA | 0.557 ± 0.025
LRYENSQRKELR | 0.653 ± 0.055
LSAEAGAGLRAM | 0.684 ± 0.034
LSALPPRPFSYR | 0.7053 ± 0.004
LSAPPPPPPPSP | 0.7026 ± 0.003
LSATWLKAIVYW | 0.578 ± 0.012
LSETTAYLQQAS | 0.693 ± 0.1
LSFDAVSVGFGG | 0.691 ± 0.064
LSGSRAFVTVVL | 0.644 ± 0.034
LSGSTQLLYFFQ | 0.6651 ± 0.0028
LSGTGTIIKARA | 0.67 ± 0.14
LSGVYPQACSRL | 0.734 ± 0.014
LSHMRVSLTRPR | 0.707 ± 0.029

Sequence | protein stability index
LSHSHLYLFFHH | 0.6957 ± 0.0027
LSIPPSLLSLPL | 0.702 ± 0.025
LSLALGSPGALP | 0.703 ± 0.07
LSLCVVFRAPSR | 0.686 ± 0.042
LSLLLLPPFPHF | 0.758 ± 0.026
LSLLPPPPPPSP | 0.688 ± 0.011
LSLRGRLNYRMM | 0.647 ± 0.011
LSLSPLHRSSFR | 0.6954 ± 0.0056
LSPGSSPAVSGF | 0.722 ± 0.13
LSPGTPVSAPRL | 0.655 ± 0.029
LSPLSHPPSPAP | 0.6806 ± 0.0014
LSPLSVPAPPSP | 0.655 ± 0.027
LSPPLSLPPASP | 0.731 ± 0.032
LSPPPRPPLAPP | 0.65 ± 0.039
LSPPPSLSSRPP | 0.706 ± 0.064
LSPPRSPPSRPP | 0.645 ± 0.029
LSPQKRDSAVTR | 0.638 ± 0.095
LSPRSSGCPRWF | 0.677 ± 0.019
LSPTQSTLPTPP | 0.673 ± 0.01
LSQASPGSPRPA | 0.698 ± 0.011
LSRLLVYSRGIV | 0.629 ± 0.093
LSRPTSWLLSFL | 0.777 ± 0.12
LSSARPMNLPPG | 0.67 ± 0.057
LSSGLLIFPIVF | 0.631 ± 0.031
LSSHLHCVTLFT | 0.606 ± 0.059
LSSPCAFTCPLL | 0.7139 ± 0.0062

Sequence | protein stability index
LSSPPAPPPPPR | 0.677 ± 0.13
LSTPWADPTSSP | 0.716 ± 0.096
LSTSINTIIPGP | 0.71 ± 0.14
LSVFAFRGVFRF | 0.638 ± 0.045
LSVFCALPFVAL | 0.7026 ± 0.0048
LSVSLCWRHFFS | 0.693 ± 0.012
LTCRASNGIQAA | 0.677 ± 0.021
LTGCFRSSRRCC | 0.665 ± 0.02
LTGTVQPKLILP | 0.722 ± 0.051
LTLGAIRLLLRC | 0.496 ± 0.037
LTLGSSGTSFLS | 0.698 ± 0.016
LTLPPACFPRLR | 0.723 ± 0.059
LTLQIWNLVSHL | 0.599 ± 0.071
LTNLGSDRCRLQ | 0.623 ± 0.0074
LTSWYGNKLVAV | 0.588 ± 0.029
LTVIRSRDVIGP | 0.641 ± 0.055
LTVPCSSSFPLL | 0.647 ± 0.095
LTWRVDECPPYS | 0.712 ± 0.038
LVCKRQGQANFI | 0.689 ± 0.06
LVCPFFLSSRIF | 0.653 ± 0.025
LVDAGGSTRGKP | 0.643 ± 0.0069
LVFGGRMRVYRP | 0.678 ± 0.016
LVFGLGSVYLWG | 0.602 ± 0.059
LVFTDDGGVRSL | 0.609 ± 0.03
LVGFGGGGHGVV | 0.696 ± 0.019
LVGPPDPAHAVH | 0.718 ± 0.031

Sequence | protein stability index
LVGTYTPRFTPC | 0.643 ± 0.1
LVHRGRRGSNIE | 0.7537 ± 0.0011
LVLPTSRPRCFI | 0.661 ± 0.027
LVQTREKIELVS | 0.643 ± 0.027
LVQVGDKRFNRL | 0.651 ± 0.01
LVRAWRGGVGGV | 0.669 ± 0.0098
LVRCDSSSPLPP | 0.6863 ± 0.0042
LVRGKGGRGIEG | 0.698 ± 0.074
LVRMCLFNMHFS | 0.698 ± 0.018
LVRNGLCCTSRQ | 0.704 ± 0.029
LVSACIRFPPSH | 0.716 ± 0.079
LVSFLFAPLPLS | 0.704 ± 0.038
LVSLGLHAGKRI | 0.70514 ± 0.0004
LVVCWGCGLGVL | 0.71 ± 0.033
LVVSPPPLPFPS | 0.689 ± 0.013
LWAQRASPPWYQ | 0.606 ± 0.047
LWCPLLTSFPSY | 0.726 ± 0.078
LWFWAVECGLGG | 0.713 ± 0.32
LWGGGGAGYWVG | 0.732 ± 0.035
LWGYFRTAASFV | 0.645 ± 0.095
